Target: T1, human ELMO1, full length (residues 1–727), tag cleaved (human, UniProt Q92556 1-727)
T1 construct: human ELMO1, full length, residues 1–727; Purified as a complex with DOCK5; also called engulfment and cell motility 1; source: FreeStyle 293-F cells, co-expressed with DOCK5, purified (Streptavidin Sepharose, TEV cleavage, SEC Superose 6); not shown: FLAG, N-terminal, cleaved
Test: cryo-EM structure; purified DOCK5•ELMO1 complex mixed with a two-fold molar excess of Rac1^G15A-His10 and RhoG^Q61L-His10, pre-incubated on ice at least 1 h in 20 mM HEPES-NaOH pH 7.0, 150 mM NaCl, 1 mM MgCl2 (final 0.4 μM); bound to a lipid monolayer-coated grid [67PC/21PA/6PIP3/6DOGS-NTA Ni (mol%)]; single-particle analysis, C2, 6.98 Å (local 7.52 Å)
Conditions: both partners purified

T1 sequence (Q92556 whole entry, the tested form may be a part): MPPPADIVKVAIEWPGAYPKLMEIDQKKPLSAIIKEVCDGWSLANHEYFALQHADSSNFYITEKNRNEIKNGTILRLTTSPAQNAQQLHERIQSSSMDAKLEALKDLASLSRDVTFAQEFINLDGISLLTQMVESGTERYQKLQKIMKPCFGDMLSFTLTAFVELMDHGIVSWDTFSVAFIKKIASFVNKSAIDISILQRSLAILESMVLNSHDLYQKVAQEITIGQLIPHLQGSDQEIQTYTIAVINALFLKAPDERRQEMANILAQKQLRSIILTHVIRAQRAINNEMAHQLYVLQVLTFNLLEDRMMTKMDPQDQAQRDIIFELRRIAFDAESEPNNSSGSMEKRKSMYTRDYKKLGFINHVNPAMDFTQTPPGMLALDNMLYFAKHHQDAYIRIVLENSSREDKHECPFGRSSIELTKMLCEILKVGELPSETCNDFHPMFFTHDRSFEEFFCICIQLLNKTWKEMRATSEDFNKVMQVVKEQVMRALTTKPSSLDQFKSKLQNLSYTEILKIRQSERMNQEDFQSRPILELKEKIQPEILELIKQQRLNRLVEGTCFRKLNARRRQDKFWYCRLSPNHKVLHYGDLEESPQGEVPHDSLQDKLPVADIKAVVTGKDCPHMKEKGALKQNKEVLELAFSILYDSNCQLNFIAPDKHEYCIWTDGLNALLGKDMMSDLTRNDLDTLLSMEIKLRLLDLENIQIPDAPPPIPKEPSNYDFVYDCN

binding result: binds
B1: human RhoG (residues 1–191, Q61L mutant), C-terminal His10 (natural protein)
chain: not shown
notes: human RhoG, residues 1–191, Q61L; 10 μM GTP and 1 mM MgCl2 were added during purification to obtain the active form; Anchored to the lipid monolayer through His10 and DOGS-NTA(Ni); also called RhoG^Q61L; constitutively active mutant of RhoG; source: E. coli cell-free protein synthesis, purified (HisTrap, TEV cleavage, second HisTrap, SEC Superdex 75); not shown: N11 (modified natural …)

— article PMC12615776, “Conformational alteration of DOCK5•ELMO1 signalosome on lipid membrane” (Communications Biology, 2025)
